Assay results published in US20210147547A1.

Biological target: PD-L1 (UniProt Q9NZQ7)
Test: in vitro Biacore assay (SPR); format not stated

UniProt Q9NZQ7, sequence (Q9NZQ7 19-238 limits assumed): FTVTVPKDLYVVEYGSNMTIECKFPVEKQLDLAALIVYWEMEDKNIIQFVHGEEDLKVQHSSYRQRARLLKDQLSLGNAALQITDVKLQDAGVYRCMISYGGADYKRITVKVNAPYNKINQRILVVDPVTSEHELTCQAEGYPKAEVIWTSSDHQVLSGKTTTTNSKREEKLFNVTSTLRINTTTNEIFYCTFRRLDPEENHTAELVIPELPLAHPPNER

Question: How did the Kd turn out when FAZ053 (antibody) was run?
Answer: 0.14 nM
